US20190218302A1, “ANTI-CANCER COMBINATION TREATMENT” (PROBIOCON GMBH, priority 2016, published 2019)

Columns and labels:
[1] = test system: MCF10A breast cancer cells; assay: MCF10A breast cancer cells with sRANKL, Denosumab and paclitaxel, flow cytometry with 7AAD; format: cell-based, human; conditions: 48 h, paclitaxel 10 nM added after 24 h
Experimental: FIG. 2: Blockade of RANKL by Denosumab overcomes resistance to chemotherapeutic treatment. MCF10A breast tumor cells were cultured for 48 h in the presence or absence of sRANKL (100 ng/ml) and/or Denosumab (20 μg/ml) as indicated. After the first 24 h of culture, paclitaxel (10 nM) was added where indicated. Then the percentage of living and dead cells was determined using flow cytometry with 7AAD.
To this end, it was evaluated if RANKL-induced chemoresistance could be overcome by application of a RANKL-inhibitor in the form of the approved RANKL antibody Denosumab. Therefore, MCF10A breast cancer cells were cultured for 48 h in the presence or absence of sRANKL (100 ng/ml, Immunotools) and Denosumab (20 μg/ml, Amgen) as indicated. After 24 h of culture, paclitaxel (10 nM, Taxomedac) representing a first line breast cancer therapeutic agent, was added where indicated.

[2] = test system: A2780 ovarian cancer cells; assay: Viability of tumor cells cultured with platelets and Denosumab, ATP content (CellTiter-Glo); format: cell-based, human; conditions: platelets plus Denosumab, 96 h; doxorubicin for the last 24 h
Experimental: (§1) A2780 ovarian cancer cells (left) and MCF10A breast cancer cells (right) were employed as model to study the influence of RANKL and its neutralization on chemotherapy resistance. To this end, 30,000 tumor cells were cultured in the presence or absence of platelets and Denosumab for 96 h. The indicated concentrations of doxorubicin (left) or paclitaxel (right) were added for the last 24 h. Then cell viability was determined by analysis of ATP content of each sample (CellTiter-Glo assay, Promega). Values obtained with untreated tumor cells were set to 1.
(§2) To assess the role of pRANKL in the context of systemic treatment, the viability of ovarian and breast cancer cells was analyzed. Cells were incubated with human platelets in the presence or absence of Denosumab to neutralize pRANKL which mimics the situation in cancer patients. Presence of platelets enhanced the viability/cellular activity of tumor cells already without chemotherapeutic treatment, and the same was observed upon chemotherapeutic treatment.

[3] = test system: MCF10A breast cancer cells; assay: as above; format: cell-based, human; conditions: platelets plus Denosumab, 96 h; paclitaxel for the last 24 h
Experimental: as §1, §2

[4] = test system: RANK expressing PBMC of a patient suffering from AML (94% blasts); assay: Chemotherapy resistance model, PBMC of an AML patient, flow cytometry (7AAD and Annexin-V-PE); format: cell-based, human
Experimental: FIG. 1: RANKL mediates resistance of malignant cells to chemotherapeutic treatment. Blood of a patient suffering from acute myeloid leukemia (AML) containing 94% blasts (leukemic cells) was obtained at time of diagnosis prior to treatment and peripheral blood mononuclear cells (PBMC) were isolated by density gradient centrifugation. PBMC were cultured in the presence or absence of doxorubicin (dox, 1 μM) and/or soluble RANKL (sRANKL, 500 ng/ml) as indicated.
RANK expressing PBMC of a patient suffering from AML (French-American-British (FAB) classification: M4; 94% peripheral blood blasts) were subjected to a model of chemotherapyresistance (FIG. 1). To this end, patient blood was obtained at time of diagnosis prior to treatment and PBMC were isolated by density gradient centrifugation. […] Since AML cells of the FAB type M4 resemble monocyte-like cells, this experiment is in line with studies in healthy monocytes showing that sRANKL (Seshasayee et al. 2004, Jour Biol Chem, 279(29):30202-9) acts as a pro-survival factor, likely due to upregulation of anti-apoptotic BCL-2 proteins.

[5] = test system: SKBR3 breast cancer cell line; conditions: Schramek et al., Nature 2010; cited from earlier work
melanoma metastasis = conditions: Jones et al., Nature 2006, cited from earlier work

## Denosumab: fully human IgG2 monoclonal antibody specific to RANKL (Amgen); heavy chain SEQ ID 1, light chain SEQ ID 2
[1]; Denosumab 20 μg/ml with sRANKL 100 ng/ml
  effects of chemotherapeutic treatment upon RANKL neutralization (chemosensitivity): restores and even increases the effects of chemotherapeutic treatment
[2]
  protective effect of platelets on tumor cell viability: substantially reduced
[3]
  protective effect of platelets on tumor cell viability: substantially reduced

## COc1cccc2c1C(=O)c1c(O)c3c(c(O)c1C2=O)C[C@@](O)(C(=O)CO)C[C@@H]3O[C@H]1C[C@H](N)[C@H](O)[C@H](C)O1 [doxorubicin, reference compound]
[4]; doxorubicin 1 μM, 48 h of treatment
  percentage of early apoptotic and dead cells compared to the control group: greatly enhanced
[4]; ex vivo cancer cell assay, doxorubicin applied
  amount of viable AML cells: reduced

B1: sRANKL: recombinant human soluble RANKL, Immunotools, Germany (protein)
chain: EKAMVDGSWLDLAKRSKLEAQPFAHLTINATDIPSGSHKVSLSSWYHDRGWAKISNMTFSNGKLIVNQDGFYYLYANICFRHHETSGDLATEYLQLMVYVTKTSIKIPSSHTLMKGGSTKYWSGNSEFHFYSINVGGFFKLRSGEEISIEVSNPSLLDPDQDATYFGAFKVRDID
[1]; sRANKL 100 ng/ml
  protection of malignant cells from the effects of chemotherapeutic treatment: protects the malignant cells from the effects of chemotherapeutic treatment
[4]; ex vivo cancer cell assay, doxorubicin plus sRANKL
  effect of doxorubicin on the amount of viable AML cells in the presence of sRANKL: neutralized
[4]; sRANKL 500 ng/ml added to doxorubicin 1 μM, 48 h
  effect of chemotherapeutic treatment when sRANKL was added: markedly reduced
[5]
  protection from apoptosis induced by doxorubicin: protects the SKBR3 breast cancer cell line from apoptosis induced by doxorubicin

B2: osteoprotegerin: used for in vivo neutralization of RANKL in a mouse model of melanoma metastasis (protein, UniProt O00300 22-401, looked up)
Tumor necrosis factor …: ETFPPKYLHYDEETSHQLLCDKCPPGTYLKQHCTAKWKTVCAPCPDHYYTDSWHTSDECLYCSPVCKELQYVKQECNRTHNRVCECKEGRYLEIEFCLKHRSCPPGFGVVQAGTPERNTVCKRCPDGFFSNETSSKAPCRKHTNCSVFGLLLTQKGNATHDNICSGNSESTQKCGIDVTLCEEAFFRFAVPTKFTPNWLSVLVDNLPGTKVNAESVERIKRQHSSQEQTFQLLKLWKHQNKDQDIVKKIIQDIDLCENSVQRHIGHANLTFEQLRSLMESLPGKKVGAEDIEKTIKACKPSDQILKLLSLWRIKNGDQDTLKGLMHALKHSKTYHFPKTVTQSLKKTIRFLHSFTMYKLYQKLFLEMIGNQVQSVKISCL
Melanoma metastasis
  protection from paralysis: complete protection from paralysis
Melanoma metastasis; in bones, but not in other organs
  tumor burden in bones: marked reduction in tumor burden in bones
